Assay results as given in patent US8609370.

Columns and labels:
[1] = biological target: Leukine (commercial rhGM-CSF of Schering AG, expressed in yeast) (human) (UniProt P04141); assay: cell-based or functional assay
[2] = biological target: rhGM-CSF expressed in NM-F9 cells cultured with 90 mM ManNAc (optimal sialylation form of rhGM-CSF) (human) (UniProt P04141); assay: cell-based or functional assay

In the case of anti-human GM-CSF antibody BVD2-23 B6, the stimulation of TF-1 cell proliferation (BrdU-proliferation assay), blocking at 5 µg/ml antibody [1] is reported as 60% and the stimulation of TF-1 cell proliferation (BrdU-proliferation assay), blocking at 5 µg/ml antibody [2] is reported as 60%.
